Assay results taken from publication PMC7159914.

Assays:
[1] = target: rotavirus (RV) A VP3, full-length recombinant (rotavirus A); assay: cryo-EM structure
[2] = target: rotavirus (RV) A VP3, full-length recombinant (rotavirus A); assay: crystal structure
[3] = target: rotavirus (RV) A VP3, full-length recombinant (rotavirus A); assay: SEC + AUC

Measured: stoichiometry N

rotavirus (RV) A VP3, full-length recombinant (enzyme)
4: all assays above
